B1: Myc:Wts (Myc-tagged Warts) (enzyme, Drosophila, UniProt Q9VA38 1-1105, looked up)
chain: MHPAGEKRGGRPNDKYTAEALESIKQDLTRFEVQNNHRNNQNYTPLRYTATNGRNDALTPDYHHAKQPMEPPPSASPAPDVVIPPPPAIVGQPGAGSISVSGVGVGVVGVANGRVPKMMTALMPNKLIRKPSIERDTASSHYLRCSPALDSGAGSSRSDSPHSHHTHQPSSRTVGNPGGNGGFSPSPSGFSEVAPPAPPPRNPTACSAATPPPPVPPTSQAYVKRRSPALNNRPPAIAPPTQRGNSPVITQNGLKNPQQQLTQQLKSLNLYPGGGSGAVVEPPPPYLIQGGAGGAAPPPPPPSYTASMQSRQSPTQSQQSDYRKSPSSGIYSATSAGSPSPITVSLPPAPLAKPQPRVYQARSQQPIIMQSVKSTQVQKPVLQTAVAPQSPSSASASNSPVHVLAAPPSYPQKSAAVVQQQQQAAAAAHQQQHQHQQSKPPTPTTPPLVGLNSKPNCLEPPSYAKSMQAKAATVVQQQQQQQQQQQQVQQQQVQQQQQQQQQQLQALRVLQAQAQRERDQRERDQRERERDQQKLANGNPGRQMLPPPPYQSNNNNNSEIKPPSCNNNNIQISNSNLATTPPIPPAKYNNNSSNTGANSSGGSNGSTGTTASSSTSCKKIKHASPIPERKKISKEKEEERKEFRIRQYSPQAFKFFMEQHIENVIKSYRQRTYRKNQLEKEMHKVGLPDQTQIEMRKMLNQKESNYIRLKRAKMDKSMFVKLKPIGVGAFGEVTLVSKIDTSNHLYAMKTLRKADVLKRNQVAHVKAERDILAEADNNWVVKLYYSFQDKDNLYFVMDYIPGGDLMSLLIKLGIFEEELARFYIAEVTCAVDSVHKMGFIHRDIKPDNILIDRDGHIKLTDFGLCTGFRWTHNSKYYQENGNHSRQDSMEPWEEYSENGPKPTVLERRRMRDHQRVLAHSLVGTPNYIAPEVLERSGYTQLCDYWSVGVILYEMLVGQPPFLANSPLETQQKVINWEKTLHIPPQAELSREATDLIRRLCASADKRLGKSVDEVKSHDFFKGIDFADMRKQKAPYIPEIKHPTDTSNFDPVDPEKLRSNDSTMSSGDDVDQNDRTFHGFFEFTFRRFFDDKQPPDMTDDQAPVYV
B2: Sav:V5 (V5-tagged Salvador) (natural protein, Drosophila, UniProt Q9VCR6 1-608, looked up)
chain: MNYLTILLCNRKPTMLSRRNKEKSQHKEGVVGKYMKKDTPPDISVINVWSDQRAKKKSLQRCASTSPSCEFHPRSSSTSRNTYSCTDSQPDYYHARRAQSQMPLQQHSHSHPHSLPHPSHPHVRSHPPLPPHQFRASSNQLSQNSSNYVNFEQIERMRRQQSSPLLQTTSSPAPGAGGFQRSYSTTQRQHHPHLGGDSYDADQGLLSASYANMLQLPQRPHSPAHYAVPPQQQQHPQIHQQHASTPFGSTLRFDRAAMSIRERQPRYQPTSSPMQQQQQQQQQQQQQLQHTQLAAHLGGSYSSDSYPIYENPSRVISMRATQSQRSESPIYSNTTASSATLAVVPQHHHQGHLAVPSGSGGGSLSGSGRGGSSGSVRGASTSVQSLYVPPRTPPSAVAGAGGSANGSLQKVPSQQSLTEPEELPLPPGWATQYTLHGRKYYIDHNAHTTHWNHPLEREGLPVGWRRVVSKMHGTYYENQYTGQSQRQHPCLTSYYVYTTSAEPPKAIRPEASLYAPPTHTHNALVPANPYLLEEIPKWLAVYSEADSSKDHLLQFNMFSLPELEGFDSMLVRLFKQELGTIVGFYERYRRALILEKNRRAGQNQNQNQ

Target: Flag:Jub (full length Ajuba LIM protein Jub, 1-729aa) (Drosophila, UniProt Q9VY77 1-728)
Assay: co-IP

Sequence of Flag:Jub (full length Ajuba LIM protein Jub, 1-729aa) (Q9VY77 whole entry): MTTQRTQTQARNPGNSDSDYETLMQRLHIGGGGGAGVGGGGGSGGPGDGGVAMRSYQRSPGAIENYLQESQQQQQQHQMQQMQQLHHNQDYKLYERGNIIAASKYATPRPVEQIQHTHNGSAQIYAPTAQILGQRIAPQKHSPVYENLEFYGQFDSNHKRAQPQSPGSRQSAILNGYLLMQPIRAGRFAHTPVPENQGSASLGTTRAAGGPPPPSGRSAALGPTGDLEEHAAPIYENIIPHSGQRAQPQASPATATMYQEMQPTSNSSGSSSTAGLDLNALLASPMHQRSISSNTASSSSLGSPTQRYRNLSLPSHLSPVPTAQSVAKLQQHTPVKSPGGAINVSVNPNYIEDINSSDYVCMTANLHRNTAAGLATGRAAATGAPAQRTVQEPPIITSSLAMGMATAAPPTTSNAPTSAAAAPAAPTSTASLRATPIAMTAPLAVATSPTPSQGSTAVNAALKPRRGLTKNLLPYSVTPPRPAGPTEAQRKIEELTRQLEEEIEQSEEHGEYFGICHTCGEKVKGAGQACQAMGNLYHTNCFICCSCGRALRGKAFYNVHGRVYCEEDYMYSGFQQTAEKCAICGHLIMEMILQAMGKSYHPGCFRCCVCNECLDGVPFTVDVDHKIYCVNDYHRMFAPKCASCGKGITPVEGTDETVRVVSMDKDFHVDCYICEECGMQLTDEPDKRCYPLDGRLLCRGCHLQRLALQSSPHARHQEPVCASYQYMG

Binder	fold change of binding with Ras-MAPK activation against without
B1	2 fold
B2	3 fold

Source: publication PMC3624988 (Developmental cell, 2013)
